3 molecules from doi:10.1101/2020.07.07.192757v1 (biorxiv, 2020) can be followed below.

The target of data set [1] is T1, AkPT1 (Angelica keiskei, UniProt A0A810JZD5).
T1 sequence (A0A810JZD5 1-398): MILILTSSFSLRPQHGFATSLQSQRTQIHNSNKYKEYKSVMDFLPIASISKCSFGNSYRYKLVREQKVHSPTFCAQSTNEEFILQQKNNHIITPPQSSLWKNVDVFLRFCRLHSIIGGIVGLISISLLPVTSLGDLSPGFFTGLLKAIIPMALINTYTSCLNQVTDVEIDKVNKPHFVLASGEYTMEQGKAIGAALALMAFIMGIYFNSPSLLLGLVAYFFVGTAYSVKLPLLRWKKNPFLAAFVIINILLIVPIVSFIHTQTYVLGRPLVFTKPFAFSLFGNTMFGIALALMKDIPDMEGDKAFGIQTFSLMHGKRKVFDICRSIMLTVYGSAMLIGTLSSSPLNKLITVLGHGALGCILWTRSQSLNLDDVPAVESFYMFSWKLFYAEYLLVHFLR
Nature of the data set: dimethylallyltransferase assay, HPLC, recombinant microsomes. It counts as cell-based. The following applies: read-out: Apparent Km; co-substrate DMAPP; 10 mM MgCl2, pH 8.0, 30 °C.

Data set [2] addresses T2, CpPT1 (Citrus x paradisi, UniProt A0A810JZE7).
T2 sequence (A0A810JZE7 1-408 limits assumed): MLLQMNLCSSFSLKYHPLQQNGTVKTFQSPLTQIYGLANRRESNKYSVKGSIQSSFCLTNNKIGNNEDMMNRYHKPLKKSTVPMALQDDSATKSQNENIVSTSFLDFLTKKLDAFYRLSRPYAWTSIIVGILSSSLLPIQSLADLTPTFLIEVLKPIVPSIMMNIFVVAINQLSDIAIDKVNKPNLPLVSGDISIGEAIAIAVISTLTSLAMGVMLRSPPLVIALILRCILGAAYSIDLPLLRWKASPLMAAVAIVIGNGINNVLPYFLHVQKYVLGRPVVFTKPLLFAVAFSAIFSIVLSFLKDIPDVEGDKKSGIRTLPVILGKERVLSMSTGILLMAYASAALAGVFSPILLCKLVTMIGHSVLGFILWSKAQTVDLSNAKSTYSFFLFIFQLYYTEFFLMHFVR
Nature of the data set: geranyltransferase assay, LC product quantification, recombinant microsomes. The following applies: read-out: Apparent Km; co-substrate GPP; 10 mM MgCl2, pH 7.6, 28 °C.

Substrate in data set [3]: CC(C)=CCOP(=O)(O)OP(=O)(O)O
Nature of the data set: dimethylallyltransferase assay, HPLC, recombinant microsomes. It counts as cell-based, Angelica keiskei. The following applies: co-substrate bergaptol, 10 mM MgCl2, pH 8.0, 30 °C.

Substrate in data set [4]: O=c1ccc2c(O)cc(O)cc2o1
Nature of the data set: cells, lysate or membranes. The following applies: co-substrate GPP, 10 mM MgCl2, pH 7.6, 28 °C.

Substrate in data set [5]: CC(C)=CCC/C(C)=C/COP(=O)(O)OP(=O)(O)O
Nature of the data set: cells, lysate or membranes. The following applies: co-substrate bergaptol, 10 mM MgCl2, pH 7.6, 28 °C.

Substrate in data set [6]: O=c1ccc2cc3ccoc3c(O)c2o1
Nature of the data set: cells, lysate or membranes. The following applies: co-substrate GPP, 10 mM MgCl2, pH 7.6, 28 °C.

Substrate in data set [7]: COc1cc(O)c2ccc(=O)oc2c1
Nature of the data set: cells, lysate or membranes. The following applies: co-substrate GPP, 10 mM MgCl2, pH 7.6, 28 °C.

Substrate in data set [8]: COc1c2ccoc2c(O)c2oc(=O)ccc12
Nature of the data set: cells, lysate or membranes. The following applies: co-substrate GPP, 10 mM MgCl2, pH 7.6, 28 °C.

For `O=c1ccc2c(O)c3ccoc3cc2o1` [compound 12, Bergaptol], the Km turned out to be 3.1 ± 0.3 µM in data set [1] and 52 ± 4 µM in data set [2].

B1: AkPT1 (Angelica keiskei) (protein)
chain: T1 sequence (A0A810JZD5 1-398)
On to B1, for which, in data set [3], the Michaelis constant (Km) was 1.8 ± 0.1 µM.

B2: CpPT1 (Citrus x paradisi) (protein)
chain: T2 sequence (A0A810JZE7 1-408 limits assumed)
B2: the Km amounted to 280 ± 30 µM in data set [4]; 10 ± 1 µM in data set [5]; 280 ± 20 µM in data set [6]; 250 ± 30 µM in data set [7]; 700 ± 100 µM in data set [8].
